Source: IntAct's records for PubMed 11278869

B1: A-kinase anchor protein 3 (Homo sapiens), O75969 (parent)
chain: MSEKVDWLQSQNGVCKVDVYSPGDNQAQDWKMDTSTDPVRVLSWLRRDLEKSTAEFQDVRFKPGESFGGETSNSGDPHKGFSVDYYNTTTKGTPERLHFEMTHKEIPCQGPRAQLGNGSSVDEVSFYANRLTNLVIAMARKEINEKIDGSENKCVYQSLYMGNEPTPTKSLSKIASELVNETVSACSRNAAPDKAPGSGDRVSGSSQSPPNLKYKSTLKIKESTKERQGPDDKPPSKKSFFYKEVFESRNGDYAREGGRFFPRERKRFRGQERPDDFTASVSEGIMTYANSVVSDMMVSIMKTLKIQVKDTTIATILLKKVLLKHAKEVVSDLIDSFLRNLHSVTGTLMTDTQFVSAVKRTVFSHGSQKATDIMDAMLRKLYNVMFAKKVPEHVRKAQDKAESYSLISMKGMGDPKNRNVNFAMKSETKLREKMYSEPKSEEETCAKTLGEHIIKEGLTLWHKTQQKECKSLGFQHAAFEAPNTQRKPASDISFEYPEDIGNLSLPPYPPEKPENFMYDSDSWAEDLIVSALLLIQYHLAQGGRRDARSFVEAAGTTNFPANEPPVAPDESCLKSAPIVGDQEQAEKKDLRSVFFNFIRNLLSETIFKRDQSPEPKVPEQPVKEDRKLCERPLASSPPRLYEDDETPGALSGLTKMAVSQIDGHMSGQMVEHLMNSVMKLCVIIAKSCDASLAELGDDKSGDASRLTSAFPDSLYECLPAKGTGSAEAVLQNAYQAIHNEMRGTSGQPPEGCAAPTVIVSNHNLTDTVQNKQLQAVLQWVAASELNVPILYFAGDDEGIQEKLLQLSAAAVDKGCSVGEVLQSVLRYEKERQLNEAVGNVTPLQLLDWLMVNL
B2: Ropporin-1B (Homo sapiens), Q9BZX4 (parent)
chain: MAQTDKPTCIPPELPKMLKEFAKAAIRAQPQDLIQWGADYFEALSRGETPPVRERSERVALCNWAELTPELLKILHSQVAGRLIIRAEELAQMWKVVNLPTDLFNSVMNVGRFTEEIEWLKFLALACSALGVTITKTLKIVCEVLSCDHNGGLPRIPFSTFQFLYTYIAEVDGEICASHVSRMLNYIEQEVIGPDGLITVNDFTQNPRVWLE

Variants of: B1
Details: with rop1b_human ROPN1B, Q9BZX4

| Variant | effect of a mutation on the interaction |
| --- | --- |
| L131P | decreasing interaction |

Variants of: B1
Details: with kap2_human PRKAR2A

| Variant | effect of a mutation on the interaction |
| --- | --- |
| L131P | decreasing interaction |

Variants of: B2
Details: with akap3_human AKAP3, O75969

| Variant | effect of a mutation on the interaction |
| --- | --- |
| L18A | decreasing interaction |
